Measured values: paper PMC6658569 (2019)

B1: HtrE (natural protein)
chain: AELVEYDHTFLMGQNASNIDLSRYSEGNPAIPGVYDVSVYVNDQPIINQSITFVAIEGKKNAQACITLKNLLQFHINSPDINNEKAVLLARDETLGNCLNLTEIIPQASVRYDVNDQRLDIDVPQAWVMKNYQNYVDPSLWENGINAAMLSYNLNGYHSETPGRKNESIYAAFNGGMNLGAWRLRASGNYNWMTDSGSNYDFKNRYVQRDIASLRSQLILGESYTTGETFDSVSIRGIRLYSDSRMLPPTLASFAPIIHGVANTNAKVTITQGGYKIYETTVPPGAFVIDDLSPSGYGSDLIVTIEESDGSKRTFSQPFSSVVQMLRPGVGRWDISGGQVLKDDIQDEPNLFQASYYYGLNNYLTGYTGIQITDNNYTAGLLGLGLNTSVGAFSFDVTHSNVRIPDDKTYQGQSYRVSWNKLFEETSTSLNIAAYRYSTQNYLGLNDALTLIDEVKHPEQDLEPKSMRNYSRMKNQVTVSINQPLKFEKKDYGSFYLSGSWSDYWASGQNRSNYSIGYSNSTSWGSYSVSAQRSWNEDGDTDDSVYLSFTIPIEKLLGTEQRTSGFQSIDTQISSDFKGNNQLNVSSSGYSDNARVSYSVNTGYTMNKASKDLSYVGGYASYESPWGTLAGSISANSDNSRQVSLSTDGGFVLHSGGLTFSNDSFSDSDTLAVVQAPGAQGARINYGNSTIDRWGYGVTSALSPYHENRIALDINDLENDVELKSTSAVAVPRQGSVVFADFETVQGQSAIMNITRSDGKNIPFAADIYDEQGNVIGNVGQGGQAFVRGIEQQGNISIKWLEQSKPVSCLAHYQQSPEAEKIAQSIILNGIRCQIQ
modifications: NHS ester fluorescent dye (in the MST assay only)
B2: NfrA (natural protein)
chain: DNIGTSAEELGLSDYRHFVIYPRLDKALKAQKNNDEATAIREFEYIHQQVPDNIPLTLYLAEAYRHFGHDDRARLLLEDQLKRHPGDARLERSLAAIPVEVKSVTTVEELLAQQKACDAAPTLRCRSEVGQNALRLAQLPVARAQLNDATFAASPEGKTLRTDLLQRAIYLKQWSQADTLYNEARQQNTLSAAERRQWFDVLLAGQLDDRILALQSQGIFTDPQSYITYATALAYRGEKARLQHYLIENKPLFTTDAQEKSWLYLLSKYSANPVQALANYTVQFADNRQYVVGATLPVLLKEGQYDAAQKLLATLPANEMLEERYAVSVATRNKAEALRLARLLYQQEPANLTRLDQLTWQLMQNEQSREAADLLLQRYPFQGDARVSQTLMARLASLLESHPYLATPAKVAILSKPLPLAEQRQWQSQLPGIADNCPAIVRLLGDMSPSYDAAAWNRLAKCYRDTLPGVALYAWLQAEQRQPSAWQHRAVAYQAYQVEDYATALAAWQKISLHDMSNEDLLAAANTAQAAGNGAARDRWLQQAEKRGLGSNALYWWLHAQRYIPGQPELALNDLTRSINIAPSANAYVARATIYRQRHNVPAAVSDLRAALELEPNNSNTQAALGYALWDSGDIAQSREMLEPAHKGLPDDPALIRQLAYVNQRLDDMPATQHYARLVIDDIDNQALITPLTPEQNQQRFNFRRLHEEVGRRWTFSFDSSIGLRSGAMSTANNNVGGAAPGKSYRSYGQLEAEYRIGRNMLLEGDLLSVYSRVFADTGENGVMMPVKNPMSGTGLRWKPLRDQIFFIAVEQQLPLNGQNGASDTMLRASASFFNGGKYSDEWHPNGSGWFAQNLYLDAAQYIRQDIQAWTADYRVSWHQKVANGQTIEPYAHVQDNGYRDKGTQGAQLGGVGVRWNIWTGETHYDAWPHKVSLGVEYQHTFKAINQRNGERNNAFLTIGVHW
modifications: NHS ester fluorescent dye (in the MST assay only)
B3: YhcD (natural protein)
chain: DGIEIAAVDFDRETLKSLGVDPNISHYFSRSARFLPGEYSLIVSVNGEKKGNIATRFDENGDICLDQAFLQQAGLKIPSEEKNGCYDYILSYPGTTITPLPNQEALDIIVSPQAIIPIGLDLTNAATGGTAALLNYSLMSSRAEFSNGSSDYSQAALEGGININDWMLRSHQFLTQTNGTFSNQNSSTYLQRTFTDLKTLMRAGEVNLNNSVLEGASIYGIEIAPDNALQTSGSGVQVTGIANTSQARVEIRQQGVLIHSILVPAGAFTIPDVPVRNGNSDLNVTVVETDGSSHNYIVPSTLFNQHVESFQGYRFAIGRVDDDYDESPWVISASSGWNLTRWSAMNGGVIVAENYQAASIRSSLVPLPDLTVSSQISTSQDTKDSLQGQKYRLDANYNLPFSLGLTTSLTRSDRHYRELSEAIDDDYTDPTKSTYALGLNWSNSILGGFNISGYKTYSYDGDNDSSNLNINWNKAFKHATVSVNWQHQLSASENNEDDGDLFYVNISIPFGRSNTATLYTRHDDHKTHYGTGVMGVVSDEMSYYVNAERDHDERETSLNGSISSNLHYTQVSLAAGASGSDSRTYNGTMSGGIAVHDQGVTFSPWTINDTFAIAKMDNNIAGVRITSQAGPVWTDFRGNAVIPSIQPWRTSGVEIDTASLPKNVDIGNGTKMIKQGRGAVGKVGFSAITQRRALLNITLSDGKKLPRGVAIEDSEGNYLTTSVDDGVVFLNNIKPDMVLDIKDEQQSCRIHLTFPEDAPKDVFYETATGECQ
modifications: NHS ester fluorescent dye (in the MST assay only)

Molecular target: human complement C3 (human)
Assay: MST

human complement C3 (human), sequence (chain, as listed by the source, chain 1 of 2): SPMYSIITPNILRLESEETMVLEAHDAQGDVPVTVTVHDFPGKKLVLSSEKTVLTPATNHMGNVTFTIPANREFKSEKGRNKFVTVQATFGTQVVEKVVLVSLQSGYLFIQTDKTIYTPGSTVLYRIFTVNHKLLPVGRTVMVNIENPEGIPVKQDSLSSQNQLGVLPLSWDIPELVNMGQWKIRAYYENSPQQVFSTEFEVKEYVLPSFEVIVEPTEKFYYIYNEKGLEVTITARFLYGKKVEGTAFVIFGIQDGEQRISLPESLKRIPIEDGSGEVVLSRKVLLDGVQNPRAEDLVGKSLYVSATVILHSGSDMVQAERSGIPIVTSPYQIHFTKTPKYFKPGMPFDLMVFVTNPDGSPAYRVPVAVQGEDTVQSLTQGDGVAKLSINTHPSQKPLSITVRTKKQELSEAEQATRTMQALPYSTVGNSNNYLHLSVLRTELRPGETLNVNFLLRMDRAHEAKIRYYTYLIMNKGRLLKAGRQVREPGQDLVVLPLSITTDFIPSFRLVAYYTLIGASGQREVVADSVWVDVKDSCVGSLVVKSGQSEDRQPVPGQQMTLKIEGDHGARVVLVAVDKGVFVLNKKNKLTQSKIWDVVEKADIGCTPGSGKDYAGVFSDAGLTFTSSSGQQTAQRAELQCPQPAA
human complement C3 (human), sequence (chain, as listed by the source, chain 2 of 2): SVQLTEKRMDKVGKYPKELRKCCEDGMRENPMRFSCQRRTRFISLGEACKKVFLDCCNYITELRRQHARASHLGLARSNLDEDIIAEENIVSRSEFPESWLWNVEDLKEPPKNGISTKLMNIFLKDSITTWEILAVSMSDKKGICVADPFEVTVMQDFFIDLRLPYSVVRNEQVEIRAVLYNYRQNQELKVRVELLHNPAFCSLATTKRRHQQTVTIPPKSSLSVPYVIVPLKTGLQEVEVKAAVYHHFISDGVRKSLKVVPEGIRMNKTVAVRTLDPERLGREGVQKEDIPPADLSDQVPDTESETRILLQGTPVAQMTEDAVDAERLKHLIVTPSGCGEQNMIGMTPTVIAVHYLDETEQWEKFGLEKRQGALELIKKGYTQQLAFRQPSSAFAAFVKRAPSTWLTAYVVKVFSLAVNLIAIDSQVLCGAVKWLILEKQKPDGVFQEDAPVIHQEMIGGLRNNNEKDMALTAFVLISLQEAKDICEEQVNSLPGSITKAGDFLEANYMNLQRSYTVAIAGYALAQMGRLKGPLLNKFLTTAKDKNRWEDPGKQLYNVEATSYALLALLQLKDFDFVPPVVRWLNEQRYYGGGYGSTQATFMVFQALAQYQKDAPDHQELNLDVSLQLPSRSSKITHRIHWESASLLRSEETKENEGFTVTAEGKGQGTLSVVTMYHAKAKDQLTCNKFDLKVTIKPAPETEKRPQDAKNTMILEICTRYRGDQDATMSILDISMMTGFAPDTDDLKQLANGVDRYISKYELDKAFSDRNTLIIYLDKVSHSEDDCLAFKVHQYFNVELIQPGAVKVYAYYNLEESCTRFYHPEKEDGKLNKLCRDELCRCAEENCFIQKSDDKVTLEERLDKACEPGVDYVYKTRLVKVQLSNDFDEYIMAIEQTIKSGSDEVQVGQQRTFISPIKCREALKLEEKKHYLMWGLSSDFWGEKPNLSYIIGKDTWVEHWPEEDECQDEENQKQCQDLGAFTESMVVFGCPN

Binder	Kd [µM]
B1	5.4
B2	1.3
B3	8.9
